From article PMC7611084 (Chemical communications (Cambridge, England), 2020)
Blank lines part the entries; values can stand above or below the molecule they belong to.

How the values were obtained:
SpCID1 = target: T1, SpCID1 (Schizosaccharomyces pombe, UniProt O13833); test: fluorescence titration; format: binding
T1 sequence (O13833 1-405): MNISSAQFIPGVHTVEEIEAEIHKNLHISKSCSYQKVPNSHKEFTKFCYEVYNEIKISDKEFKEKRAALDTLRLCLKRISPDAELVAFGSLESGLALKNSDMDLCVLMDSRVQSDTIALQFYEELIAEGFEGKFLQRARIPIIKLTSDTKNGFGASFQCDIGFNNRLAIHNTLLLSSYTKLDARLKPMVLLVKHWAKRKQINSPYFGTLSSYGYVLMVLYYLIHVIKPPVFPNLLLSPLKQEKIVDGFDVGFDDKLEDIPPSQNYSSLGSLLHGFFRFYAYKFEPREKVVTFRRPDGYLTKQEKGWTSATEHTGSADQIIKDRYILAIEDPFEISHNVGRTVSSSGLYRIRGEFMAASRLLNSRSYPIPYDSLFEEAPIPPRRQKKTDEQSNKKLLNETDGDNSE

[1] = target: T2, SpCID1 (caffeine-induced death suppressor 1, terminal uridylyl transferase) (Schizosaccharomyces pombe, UniProt O13833 1-405); test: EMSA
T2 sequence: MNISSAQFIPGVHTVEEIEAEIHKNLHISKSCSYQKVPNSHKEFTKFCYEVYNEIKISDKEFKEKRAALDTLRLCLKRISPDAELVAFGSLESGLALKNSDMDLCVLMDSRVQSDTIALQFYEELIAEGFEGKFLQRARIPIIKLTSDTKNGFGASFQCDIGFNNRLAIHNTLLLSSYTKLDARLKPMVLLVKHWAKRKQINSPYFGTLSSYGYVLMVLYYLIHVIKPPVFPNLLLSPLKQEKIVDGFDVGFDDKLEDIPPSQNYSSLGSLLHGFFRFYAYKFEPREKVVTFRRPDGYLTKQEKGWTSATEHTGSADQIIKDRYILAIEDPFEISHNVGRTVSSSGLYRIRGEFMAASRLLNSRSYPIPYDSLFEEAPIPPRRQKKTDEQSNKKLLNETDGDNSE

[2] = target: T2, SpCID1 (caffeine-induced death …); test: fluorescence titration

Kd (SpCID1): 180 ± 40 nM
Molecule: O=c1[nH]c(=O)n([C@@H]2O[C@H](COP(=O)(O)OP(=O)(O)OP(=O)(O)O)[C@@H](O)[C@H]2O)cc1-c1cc2ccccc2o1 [compound 2, BFUTP]

Molecule: UUACCAUAGAAUCAUGUGCCAUACAUCAU (ssRNA, 3'-terminal U (position 29) is 5-benzofuran-uridine (BFU)) [3BFU]
Kd [1]: ~5400 nM

Molecule: UUACCAUAGAAUCAUGUGCCAUACAUCAU (ssRNA, 3'-terminal U (position 29) is 5-benzofuran-uridine (BFU)) [4BFU]
Kd [2]: 520 ± 40 nM
